Source: patent US20240400708A1

Target: feline FcRn complex (FcRn-α subunit and β-microglobulin), biotin labeled (feline)
Assay: SPR, pH 6

Kd	Molecule
4.8 nM	feline IgG1a S434Q (antibody)
20.2 nM	feline IgG1a wild-type (WT) (antibody, part only; not given: Variable domains, not shown: another chain or arm of the molecule) constant: ASTTAPSVFPLAPSCGTTSGATVALACLVLGYFPEPVTVSWNSGALTSGVHTFPAVLQASGLYSLSSMVTVPSSRWLSDTFTCNVAHPPSNTKVDKTVRKTDHPPGPKPCDCPKCPPPEMLGGPSIFIFPPKPKDTLSISRTPEVTCLVVDLGPDDSDVQITWFVDNTQVYTAKTSPREEQFNSTYRVVSVLPILHQDWLKGKEFKCKVNSKSLPSPIERTISKAKGQPHEPQVYVLPPAQEELSRNKVSVTCLIKSFHPPDIAVEWEITGQPEPENNYRTTPPQLDSDGTYFVYSKLSVDRSHWQRGNTYTCSVSHEALHSHHTQKSLTQSPGK
36.2 nM	feline IgG1a A378R (antibody, part only; not given: Variable domains, not shown: another chain or arm of the molecule) constant: ASTTAPSVFPLAPSCGTTSGATVALACLVLGYFPEPVTVSWNSGALTSGVHTFPAVLQASGLYSLSSMVTVPSSRWLSDTFTCNVAHPPSNTKVDKTVRKTDHPPGPKPCDCPKCPPPEMLGGPSIFIFPPKPKDTLSISRTPEVTCLVVDLGPDDSDVQITWFVDNTQVYTAKTSPREEQFNSTYRVVSVLPILHQDWLKGKEFKCKVNSKSLPSPIERTISKAKGQPHEPQVYVLPPAQEELSRNKVSVTCLIKSFHPPDIRVEWEITGQPEPENNYRTTPPQLDSDGTYFVYSKLSVDRSHWQRGNTYTCSVSHEALHSHHTQKSLTQSPGK
48.3 nM	feline IgG1a A378S (antibody, part only; not given: Variable domains, not shown: another chain or arm of the molecule) constant: ASTTAPSVFPLAPSCGTTSGATVALACLVLGYFPEPVTVSWNSGALTSGVHTFPAVLQASGLYSLSSMVTVPSSRWLSDTFTCNVAHPPSNTKVDKTVRKTDHPPGPKPCDCPKCPPPEMLGGPSIFIFPPKPKDTLSISRTPEVTCLVVDLGPDDSDVQITWFVDNTQVYTAKTSPREEQFNSTYRVVSVLPILHQDWLKGKEFKCKVNSKSLPSPIERTISKAKGQPHEPQVYVLPPAQEELSRNKVSVTCLIKSFHPPDISVEWEITGQPEPENNYRTTPPQLDSDGTYFVYSKLSVDRSHWQRGNTYTCSVSHEALHSHHTQKSLTQSPGK
42.9 nM	feline IgG1a A378V (antibody, part only; not given: Variable domains, not shown: another chain or arm of the molecule; small tags and cut ends) constant: ASTTAPSVFPLAPSCGTTSGATVALACLVLGYFPEPVTVSWNSGALTSGVHTFPAVLQASGLYSLSSMVTVPSSRWLSDTFTCNVAHPPSNTKVDKTVRKTDHPPGPKPCDCPKCPPPEMLGGPSIFIFPPKPKDTLSISRTPEVTCLVVDLGPDDSDVQITWFVDNTQVYTAKTSPREEQFNSTYRVVSVLPILHQDWLKGKEFKCKVNSKSLPSPIERTISKAKGQPHEPQVYVLPPAQEELSRNKVSVTCLIKSFHPPDIVVEWEITGQPEPENNYRTTPPQLDSDGTYFVYSKLSVDRSHWQRGNTYTCSVSHEALHSHHTQKSLTQSPGK
59.2 nM	feline IgG1a A378T (antibody, part only; not given: Variable domains, not shown: another chain or arm of the molecule; small tags and cut ends) constant: ASTTAPSVFPLAPSCGTTSGATVALACLVLGYFPEPVTVSWNSGALTSGVHTFPAVLQASGLYSLSSMVTVPSSRWLSDTFTCNVAHPPSNTKVDKTVRKTDHPPGPKPCDCPKCPPPEMLGGPSIFIFPPKPKDTLSISRTPEVTCLVVDLGPDDSDVQITWFVDNTQVYTAKTSPREEQFNSTYRVVSVLPILHQDWLKGKEFKCKVNSKSLPSPIERTISKAKGQPHEPQVYVLPPAQEELSRNKVSVTCLIKSFHPPDITVEWEITGQPEPENNYRTTPPQLDSDGTYFVYSKLSVDRSHWQRGNTYTCSVSHEALHSHHTQKSLTQSPGK
49 nM	feline IgG1a A378Q (antibody, part only; not given: Variable domains, not shown: another chain or arm of the molecule) constant: ASTTAPSVFPLAPSCGTTSGATVALACLVLGYFPEPVTVSWNSGALTSGVHTFPAVLQASGLYSLSSMVTVPSSRWLSDTFTCNVAHPPSNTKVDKTVRKTDHPPGPKPCDCPKCPPPEMLGGPSIFIFPPKPKDTLSISRTPEVTCLVVDLGPDDSDVQITWFVDNTQVYTAKTSPREEQFNSTYRVVSVLPILHQDWLKGKEFKCKVNSKSLPSPIERTISKAKGQPHEPQVYVLPPAQEELSRNKVSVTCLIKSFHPPDIQVEWEITGQPEPENNYRTTPPQLDSDGTYFVYSKLSVDRSHWQRGNTYTCSVSHEALHSHHTQKSLTQSPGK
